Measurements from US12497460B2, “Anti-MSR1 antibodies and methods of use thereof” (REGENERON PHARMACEUTICALS, INC., priority 2018, dated 2025).

B1: H2aM21229N: one of "Twelve anti-MSR1 antibodies"; "an “H2aM” antibody has a mouse IgG2a Fc" (antibody, V domains shown)
VH: EVQLVESGGGLVKPGGSLRLSCAASGFTFSRYSMNWVRQAPGKGLEWVSSISSSSSYIYYGDTVKGRFTISRDNAKKSLYLQMNSLRAEDTAVYYCVRDRGQLVLYFDYWGQGTLVTVSS
VL: DIQMTQSPASLSTSIRDRVTITCRASLSISSFLNWFQQRPGKAPKLLIYVASNLQSGVPSRFSDSGSGTDFTLTISSLQPEDFATYYCQQNYSTPPITFGQGTRLEIK
B2: H2aM25695N: one of "Twelve anti-MSR1 antibodies"; "an “H2aM” antibody has a mouse IgG2a Fc" (antibody, V domains shown)
VH: QVQLQESGPGLVKPSETLSLTCTVTGGSISRNYWSWIRQPPGKGLEWIGYIYYSGSINYNPSLKSRVTISVDMSKNQFSLKLNSVTAADTAVYYCARDRWNWKYGMDVWGQGTTVIVSS
VL: EIVLTQSPGTLSLSPGERATLSCRASQTVRNSYLAWYHQKPGQAPRLLIYGASSRATGIPDRFSGSGSGTDFTLTISRLEPEDFAVYYCQQYGSSYWTFGQGTKMEIKR

Assays:
[1] = test system: HMM-mfMSR1 (monkey MSR1 extracellular domain); test: OCTET bio-layer interferometry binding kinetics of anti-MSR1 mAbs; conditions: 25° C., analyte HMM-mfMSR1, NB = no binding observed
Method: (§1) Binding affinities and kinetic constants of human anti-MSR1 antibodies for different MSR1 reagents were determined using a real time, label-free bio-layer interferometry assay on an OCTET® HTX biosensor platform (Pall FortéBio Corp., Menlo Park, CA). The experiment was performed at 25° C. in 10 mM HEPES, 150 mM NaCl, 3 mM EDTA, 0.05% v/v Surfactant Tween-20, and 1 mg/mL BSA, pH7.4 (HBS-EBT) buffer with the plate shaking at the speed of 1000 rpm. Binding studies were performed on human MSR1 extracellular domain expressed with a N-terminal nonahistidine tag (His9-hMSR1; R&D Systems, Cat #2708-MS), monkey MSR1 extracellular domain expressed with a N-terminal myc-myc-hexahistidine tag (HMM-mfMSR1; SEQ ID NO: 418), and mouse MSR1 extracellular domain expressed with a N-terminal nonahistidine tag (His9-mMSR1; R&D Systems, Cat #1797-MS). The anti-MSR1 monoclonal antibodies were captured by dipping either anti-human Fc (AHC) or anti-mouse Fc (AMC) Octet biosensors in wells containing 5 μg/mL or 10 μg/mL of anti-MSR1 monoclonal antibody for 45-90 seconds. The AHC captured anti-MSR1 monoclonal antibodies were then dipped in wells containing 50 nM of His9-mMSR1, while the AMC captured anti-MSR1 monoclonal antibodies were dipped in wells containing different concentrations of His9-hMSR1 or HMM-mfMSR1 (100 nM, 25 nM) or 100 nM His9-mMSR1. The binding of different MSR1 reagents to the captured anti-MSR1 monoclonal antibody was measured for 4 minutes and the dissociation of monoclonal antibody bound MSR1 reagent was monitored for 8-10 minutes in HBS-EBT buffer.
(§2) The association rate (ka) and dissociation rate (kd) were determined by fitting the real-time binding sensorgrams to a 1:1 binding model with mass transport limitation using Scrubber 2.0c curve-fitting software. Binding dissociation equilibrium constant (KD) and dissociative half-life (t½) were calculated from the kinetic rates as: […]
(§3) Binding kinetics parameters for His9-hMSR1, HMM-mfMSR1 or His9-mMSR1 binding to different anti-MSR1 monoclonal antibodies of the invention at 25° C. are shown in Tables 8 and 9.

[2] = biological target: T1, His9-hMSR1 (human MSR1 extracellular domain) (Homo sapiens, UniProt P21757); test: as above; conditions: 25° C., analyte His9-hMSR1, NB = no binding observed
T1 construct: human MSR1 extracellular domain expressed with a N-terminal nonahistidine tag; His9 (nonahistidine) (N); purchased R&D Systems 2708-MS
T1 sequence (P21757 77-451 limits assumed): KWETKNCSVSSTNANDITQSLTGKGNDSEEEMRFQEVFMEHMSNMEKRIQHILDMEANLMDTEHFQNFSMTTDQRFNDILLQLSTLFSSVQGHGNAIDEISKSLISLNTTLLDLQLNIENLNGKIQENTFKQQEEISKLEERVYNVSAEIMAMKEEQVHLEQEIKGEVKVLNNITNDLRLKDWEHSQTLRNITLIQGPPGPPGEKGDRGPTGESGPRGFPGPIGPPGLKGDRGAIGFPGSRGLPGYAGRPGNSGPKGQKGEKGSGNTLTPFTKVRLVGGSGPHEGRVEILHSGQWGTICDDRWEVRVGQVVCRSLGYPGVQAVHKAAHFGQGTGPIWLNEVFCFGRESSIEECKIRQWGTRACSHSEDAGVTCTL
Method: as §1, §2, §3

parental HEK293 cells = test: Electrochemiluminescence antibody binding assay, non-specific binding control cells; type: cell-based, human
[3] = biological target: T2, MSR1-mediated Dil-AcLDL uptake in HEK293.Myc.hMSR1 cells (Homo sapiens, UniProt P21757); test: Ligand uptake assay, Dil-AcLDL; type: cell-based; conditions: 10 μg/mL Dil-AcLDL
T2 construct: expressed in transfected cells; host or cells: HEK293 (lentiviral transduction, hygromycin selection)
T2 sequence (P21757 1-451): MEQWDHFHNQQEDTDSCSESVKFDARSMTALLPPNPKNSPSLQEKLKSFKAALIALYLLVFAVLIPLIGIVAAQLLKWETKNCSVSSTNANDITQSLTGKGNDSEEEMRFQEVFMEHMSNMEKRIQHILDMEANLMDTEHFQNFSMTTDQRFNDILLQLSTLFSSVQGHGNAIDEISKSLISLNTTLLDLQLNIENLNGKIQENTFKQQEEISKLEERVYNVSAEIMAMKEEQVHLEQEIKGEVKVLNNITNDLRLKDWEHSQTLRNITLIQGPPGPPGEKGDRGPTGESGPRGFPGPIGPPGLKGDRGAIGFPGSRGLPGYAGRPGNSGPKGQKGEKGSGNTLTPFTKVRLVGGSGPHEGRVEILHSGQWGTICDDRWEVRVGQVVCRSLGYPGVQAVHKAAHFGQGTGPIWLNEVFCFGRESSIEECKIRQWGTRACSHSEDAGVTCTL
Method: A bioassay was generated to assess the ability of the exemplary anti-MSR1 antibodies to regulate the uptake of certain MSR1 ligands.
Generation of MSR1-expressing cell lines for assay. […] The resulting cell line, referred to here as “HEK293.Myc.hMSR1”, was selected and maintained in DMEM containing 10% FIBS, NEAA, penicillin/streptomycin, L-glutamine, and 100 μg/mL hygromycin.
Ligand uptake assay. […] After 30 minutes, either oxidized or acetylated low-density lipoprotein (LDL) labeled with 1,1′dioctadecyl-3,3,3′,3′-tetramethylindocarbocyanine perchlorate (referred to as “Dil-OxLDL” or “Dil-AcLDL,” respectively) was added to the cells at a constant concentration of 10 μg/mL. […] Results were analyzed using nonlinear regression (4-parameter logistics) with the Prism 7 program to obtain EC50 and IC50 values. The percentage of inhibition was calculated with the Relative Fluorescent Unit (RFU) values by using the following equation: […]
In the equation, “RFUBaseline” is the fluorescence value from the cells treated with 10 μg/mL ligand without antibodies, “RFUInhibition” is the minimum fluorescence value with for a particular antibody with 10 μg/mL ligand, and “RFUBackground” is the fluorescence value from cells without any ligand or antibodies.

[4] = biological target: T3, PMA-treated THP-1 cells (endogenously expressed human MSR1) (Homo sapiens, UniProt P21757); test: Electrochemiluminescence antibody binding assay on MSR1-expressing cells; type: cell-based
T3 construct: endogenous in cells; host or cells: THP-1 cells differentiated with PMA
T3 sequence (P21757 1-451): T2 sequence (P21757 1-451)

Chain of HMM-mfMSR1 (monkey MSR1 extracellular domain) (as listed by the source): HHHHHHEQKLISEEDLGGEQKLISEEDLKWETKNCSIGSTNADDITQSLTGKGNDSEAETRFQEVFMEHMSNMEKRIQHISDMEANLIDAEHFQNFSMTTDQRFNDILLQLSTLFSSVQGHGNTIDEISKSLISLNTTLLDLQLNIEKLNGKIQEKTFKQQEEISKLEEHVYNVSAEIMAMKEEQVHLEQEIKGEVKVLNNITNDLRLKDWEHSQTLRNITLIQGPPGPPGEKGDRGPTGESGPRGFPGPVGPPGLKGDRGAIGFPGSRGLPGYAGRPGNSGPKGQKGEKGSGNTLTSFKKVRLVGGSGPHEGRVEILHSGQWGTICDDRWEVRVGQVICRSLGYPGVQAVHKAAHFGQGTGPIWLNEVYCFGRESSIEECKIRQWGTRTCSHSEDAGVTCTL

Row | Molecule | ka [1] [M⁻¹ s⁻¹] | kd [1] [s⁻¹] | ka [2] [M⁻¹ s⁻¹] | kd [2] [s⁻¹] | Ratio of 11 nM Antibody Binding Signal (RLU) to isotype control, HEK293 (parental HEK293 cells) | Dil-Acetylated LDL IC50 [3] | maximum inhibition of Dil-AcLDL uptake [3] | Dil-Acetylated LDL % Inhibition ([3]; maximum inhibition) | Ratio of 11 nM Antibody Binding Signal (RLU) to isotype control, PMA-treated THP-1 [4]
1 | B1 | 135000 | 0.00222 | 300000 | 0.00021 | 36 | no inhibition | no inhibition | no inhibition | 56
2 | B2 | 312000 | 0.000571 | 360000 | 0.000527 | 5 |  |  |  | 8
